Results: paper PMC4428356, “Endophilin-A1 BAR domain interaction with arachidonyl CoA” (Frontiers in Molecular Biosciences, 2014)
Where “and” joins values, the source holds several entries; their conditions need not be identical. Identical values can stand only once.

What was measured:
[1] = molecular target: the molecule itself; assay: SAXS; free endophilin-A1-BAR at 2 mg/ml in buffer B (20 mM Bicine pH 9, 100 mM NaCl), 283 K; monodisperse; mass from forward scattering, Porod volume, fit with the crystallographic dimer
[2] = molecular target: the molecule itself; assay: SAXS; free endophilin-A1-BAR at 3, 4 and 6 mg/ml in buffer B (20 mM Bicine pH 9, 100 mM NaCl), 283 K; volume fractions of dimer, tetramer and a putative helical octamer fitted with OLIGOMER

B1: Endophilin-A1-BAR (residues 1-256 of mouse endophilin-A1) (domain or fragment, UniProt Q62420 1-256, looked up)
chain: MSVAGLKKQFHKATQKVSEKVGGAEGTKLDDDFKEMERKVDVTSRAVMEIMTKTIEYLQPNPASRAKLSMINTMSKIRGQEKGPGYPQAEALLAEAMLKFGRELGDDCNFGPALGEVGEAMRELSEVKDSLDMEVKQNFIDPLQNLHDKDLREIQHHLKKLEGRRLDFDYKKKRQGKIPDEELRQALEKFDESKEIAESSMFNLLEMDIEQVSQLSALVQAQLEYHKQAVQILQQVTVRLEERIRQASSQPRREYQ
notes: endophilin-A1, mouse, residues 1-256 (BAR domain with the N-terminal amphipathic helix); calculated mass of the monomer 29 kDa; Dimeric at 2 mg/ml, higher oligomers at higher concentrations; also called endophilin-A1 BAR domain; source: E. coli BL21 codon plus, purified (Ni-chelating sepharose, Superdex 200 gel filtration)
For B1, the “stoichiometry N” value [1] was 2 and the “stoichiometry N” value [2] was 4 and 8.
